Laboratory results from article PMC6158253.

System: T1, BmoR (MarR-type regulator) (Bacteroides fragilis 638R), ORF:dbdd3c1d
T1 sequence: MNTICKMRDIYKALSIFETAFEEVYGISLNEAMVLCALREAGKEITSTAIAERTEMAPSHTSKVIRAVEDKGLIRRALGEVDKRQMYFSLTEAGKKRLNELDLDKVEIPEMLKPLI
Experiment: EMSA

Sequence | binding
ACGAGACCGATAAATGTGAGTCGGTTCTTTTTCAAAAATGCTTTAATCATCTTTATTTCAGGGTGTTTTAGAATCTGTCTGAATTTTGTTCGAGATTGTTTTGAGATTTATTTTCAAGGATATTCTCTTGTCTCTGTGAAGGCATAGCGGGCTATGTGACGCATGAAAACA (double strand) [BF638R_2699-2701 operon promoter, 171 bp] | no binding
CCGGCCTCCATATCAAACAATAACCCGTTGCAACCTATGGATATTGGTGGTGTTCCATTCTATCGTACCTATGCCGTTAATTTAACCGTAAGATTCTAAAACATCTATATTGAAAGATATGAAAACATTTAAATATTTATTTGCAGGAGTTTGTTCCGTGT (double strand) [BF638R_4194 promoter (Methods text says BF638R_4199), 161 bp] | no binding
CCTGCTACGCCTCCAATAATAATAATCTTCATTTGAATATATTTTCGTTTTAAAATAGTTTCCTATGGAAATAAACGTTTGCCGACTTAAAAAGGTTCATGGAAAAGCTTAAAAAATTAACAAGTATGGGTTATCTTACTTACGGAAGTGC (double strand) [BF638R_0572-bmoR operon promoter (bmoO), 151 bp] | binds
CGTCTGACAGCAAGATAAAGTCCCTTAAAAGGGCCATGTTTCTTAATCGCTTCAATAGCGTATTGCGAACAAGTAGGAGTGAAACGACATGAAGGAGGAGT (double strand) [hlyD fragment (non-competitor DNA), 101 bp] | no binding
